Data: patent US20210024646A1 (FUDAN UNIVERSITY, published 2021)

T1: extracellular domain of human CD73 protein (CD73-ECD), C-terminus polyhistidine-tagged (human, UniProt P21589 27-547)
T1 construct: also called Human CD73-ECD; human recombinant CD73 enzyme (CD73 extracellular domain)
T1 sequence: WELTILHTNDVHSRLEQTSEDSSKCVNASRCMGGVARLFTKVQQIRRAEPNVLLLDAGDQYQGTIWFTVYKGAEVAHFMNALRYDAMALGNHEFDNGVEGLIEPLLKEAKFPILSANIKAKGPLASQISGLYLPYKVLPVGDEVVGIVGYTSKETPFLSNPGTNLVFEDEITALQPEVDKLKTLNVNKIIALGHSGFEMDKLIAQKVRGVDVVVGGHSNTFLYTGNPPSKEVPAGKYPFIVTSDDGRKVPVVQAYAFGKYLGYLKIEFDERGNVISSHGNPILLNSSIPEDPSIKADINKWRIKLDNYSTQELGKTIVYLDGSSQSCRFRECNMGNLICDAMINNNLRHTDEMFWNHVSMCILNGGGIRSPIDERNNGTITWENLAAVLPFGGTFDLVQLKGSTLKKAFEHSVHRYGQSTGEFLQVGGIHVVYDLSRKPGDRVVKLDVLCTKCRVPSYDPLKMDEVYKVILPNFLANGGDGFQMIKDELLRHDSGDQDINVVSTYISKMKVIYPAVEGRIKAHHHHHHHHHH

T2: CD73 on the surface of human tumor cells (human, UniProt P21589 27-549)
T2 construct: whole, on cells; One entry for endogenous CD73 on all cell lines; the cell line is named under assay or readout; also called CD73 receptors on the surface of tumor cells; tumor cell CD73
T2 sequence (looked up): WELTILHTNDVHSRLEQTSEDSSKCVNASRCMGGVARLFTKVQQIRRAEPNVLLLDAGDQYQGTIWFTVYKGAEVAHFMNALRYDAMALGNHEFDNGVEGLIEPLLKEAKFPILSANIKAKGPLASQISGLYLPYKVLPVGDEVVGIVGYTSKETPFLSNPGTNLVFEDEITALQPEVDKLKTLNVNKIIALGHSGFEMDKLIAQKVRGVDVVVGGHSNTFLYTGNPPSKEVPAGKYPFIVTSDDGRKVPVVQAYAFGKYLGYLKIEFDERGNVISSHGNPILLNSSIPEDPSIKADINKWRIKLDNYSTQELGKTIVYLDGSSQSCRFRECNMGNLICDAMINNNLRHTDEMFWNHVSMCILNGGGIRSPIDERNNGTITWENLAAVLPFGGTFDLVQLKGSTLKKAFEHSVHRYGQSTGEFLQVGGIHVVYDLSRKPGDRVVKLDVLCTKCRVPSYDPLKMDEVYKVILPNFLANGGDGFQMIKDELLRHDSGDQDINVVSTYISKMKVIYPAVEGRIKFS


Tests used:
[1] = molecular target: T1, extracellular domain of human CD73 …; experiment: ELISA, coated CD73-ECD
[2] = molecular target: T2, CD73 on the surface of human tumor cells; experiment: flow cytometry, NCI-H1299 cells

Binder | binding result [1] | binding result [2]
Hu001c-21 (antibody, V domains shown, Humanized) VH: QVQLVQSGAEVKKPGASVKVSCKASGYTFTNYYIYWVRQAPGQRLEWIGWIYPGNLNIKYNEKFKGRVTITADKSASTAYMELSSLRSEDTAVYYCARDDNYAWFAYWGQGTLVTVSS VL: DIQMTQSPSSLSASVGDRVTITCKASQDVSTAVAWYQQKPGKAPKLLIYWTNTRHTGVPSRFSGSGSGTDHTLTISSLQPEDFATYYCQQHYSTPFTFGQGTKLEIK | binds | 
Hu001c-28 (antibody, V domains shown, Humanized) VH: QVQLVQSGAEVKKPGASVKVSCKTSGYTFTNYYIYWVKQRPGQGLEWIGWIYPGNLNIKYNEKFKGRVTITADKSASTAYMELSSLRSEDTAVYYCARDDNYAWFAYWGQGTLVTVSS VL: DIQMTQSPSSLSASVGDRVTITCKASQDVSTAVAWYQQKPGKSPKLLIYWTNTRHTGVPSRFSGSGSGTDHTLTISSLQPEDFATYYCQQHYSTPFTFGQGTKLEIK | binds | binds
Hu001c-30 (antibody, V domains shown, Humanized) VH: QVQLVQSGAEVKKPGASVKVSCKASGYTFTNYYIYWVKQRPGQRLEWIGWIYPGNLNIKYNEKFKGRSTLTADKSASTAYMELSSLRSEDTAVYYCARDDNYAWFAYWGQGTLVTVSS VL: DIQMTQSPSSLSASVGDRVTITCKASQDVSTAVAWYQQKPGKAPKLLIYWTNTRHTGVPSRFSGSGSGTDFTLTISSLQPEDFATYYCQQHYSTPFTFGQGTKLEIK | binds | binds
Hu001c-31 (antibody, V domains shown, Humanized) VH: QVQLVQSGAEVKKPGASVKVSCKASGYTFTNYYIYWVRQAPGQRLEWIGWIYPGNLNIKYNEKFKGRSTLTADKSASTAYMELSSLRSEDTAVYYCARDDNYAWFAYWGQGTLVTVSS VL: DIQMTQSPSSLSASVGDRVTITCKASQDVSTAVAWYQQKPGKAPKLLIYWTNTRHTGVPSRFSGSGSGTDHTLTISSLQPEDFATYYCQQHYSTPFTFGQGTKLEIK | binds | binds
Hu001c-32 (antibody, V domains shown, Humanized) VH: QVQLVQSGAEVKKPGASVKVSCKASGYTFTNYYIYWVKQRPGQRLEWIGWIYPGNLNIKYNEKFKGRSTLTADKSASTAYMELSSLRSEDTAVYYCARDDNYAWFAYWGQGTLVTVSS VL: DIQMTQSPSSLSASVGDRVTITCKASQDVSTAVAWYQQKPGKAPKLLIYWTNTRHTGVPSRFSGSGSGTDHTLTISSLQPEDFATYYCQQHYSTPFTFGQGTKLEIK | binds | binds
Hu002c-6 (antibody, V domains shown, Humanized) VH: QVQLVQSGAEVKKPGASVKVSCKASGYTLTSYWMHWVRQAPGQGLEWIGEINPSQGRSNYNEKFKSRVTLTVDRSTSTVYMELSSLRSEDTAVYYCARRGVSGNYFDYWGQGTLVTVSS VL: DIQMTQSPSSLSASVGDRVTITCKASQDINTYLSWFQQKPGKAPKSLIYRSNILVSGVPSRFSGSGSGQDYTLTISSLQPEDFATYYCLQYDEFPYTFGQGTKLEIK | binds | binds
Hu002c-2 (antibody, V domains shown, Humanized) VH: QVQLVQSGAEVKKPGASVKVSCKASGYTLTSYWMHWVRQAPGQGLEWMGEINPSQGRSNYNEKFKSRVTMTRDTSTSTVYMELSSLRSEDTAVYYCARRGVSGNYFDYWGQGTLVTVSS VL: DIQMTQSPSSLSASVGDRVTITCKASQDINTYLSWFQQKPGKAPKSLIYRSNILVSGVPSRFSGSGSGQDYTLTISSLQPEDFATYYCLQYDEFPYTFGQGTKLEIK | binds | binds
Hu002c-3 (antibody, V domains shown, Humanized) VH: QVQLVQSGAEVKKPGASVKVSCKASGYTLTSYWMHWVRQAPGQGLEWMGEINPSQGRSNYNEKFKSRVTMTRDTSTSTVYMELSSLRSEDTAVYYCARRGVSGNYFDYWGQGTLVTVSS VL: DIQMTQSPSSLSASVGDRVTITCKASQDINTYLSWFQQKPGKSPKSLIYRSNILVSGVPSRFSGSGSGQDYTLTISSLQPEDFATYYCLQYDEFPYTFGGGTKLEIK | binds | binds
